The results in this text go back to publication doi:10.1101/2025.08.13.669967, “Cryo-EM protein structure without purification” (bioRxiv, 2025).

The series concerns the molecule itself. Description: native gel or EMSA; Native PAGE of the 25 µl PURE cell-free expression reaction with FluoroTect GreenLys fluorescent detection, compared to a no plasmid DNA control.

B1: Arabidopsis thaliana Pyridoxal 5'-phosphate synthase-like subunit PDX1.2 (natural protein, UniProt Q9ZNR6 1-314, looked up)
chain: MADQAMTDQDQGAVTLYSGTAITDAKKNHPFSVKVGLAQVLRGGAIVEVSSVNQAKLAESAGACSVIVSDPVRSRGGVRRMPDPVLIKEVKRAVSVPVMARARVGHFVEAQILESLAVDYIDESEIISVADDDHFINKHNFRSPFICGCRDTGEALRRIREGAAMIRIQGDLTATGNIAETVKNVRSLMGEVRVLNNMDDDEVFTFAKKISAPYDLVAQTKQMGRVPVVQFASGGITTPADAALMMQLGCDGVFVGSEVFDGPDPFKKLRSIVQAVQHYNDPHVLAEMSSGLENAMESLNVRGDRIQDFGQGSV
modifications: translation mixture supplemented with FluoroTect GreenLys reagent (fluorescent detection)
notes: Pyridoxal 5'-phosphate synthase-like subunit PDX1.2 of Arabidopsis thaliana, Uniprot Q9ZNR6; synthetic gene (Genscript) in the pT7-DHFR Control plasmid in place of DHFR (NdeI/NotI); source: PURE (PureExpress In Vitro Protein Synthesis kit, New England Biolabs) cell-free expression, 25 µl reaction; in crude lysate or after small-scale clean-up (spin filter, benzonase, reverse His-purification); …
For the protein B1, the “stoichiometry N” value amounted to 12.
